Reference: patent publication US20120316071A1 (published 2012)

Assays:
[1] = target: T1, Recombinant Human DLL4 (R&D Systems Cat#1506-D4/CF) (human, UniProt Q9NR61 27-529); experiment: surface plasmon resonance, Fab against recombinant human DLL4; standard deviation in parentheses
T1 construct: Bought recombinant protein; also called rHuman DLL4; delta-like protein 4

[2] = target: T2, rHuman Notch-1/Fc Chimera, CF (R&D Systems Cat#3647-TK) (human, UniProt P46531 19-526); experiment: ECL (MSD) multispot binding assay, antigen spotted on plate, 20 nM Fab;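 further: purified Fab incubated 1 h at 20 °C on antigen-spotted plate, bound Fab revealed with TAG detection antibody, ECL read, antigen signal divided by same-well blank, ratio ≥4 counted as hit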
T2 construct: Bought recombinant protein; Fc part of the bought chimera not given

[3] = target: T3, rHuman IGF-1 sR, (IGF-1 sR), CF (R&D Systems Cat#391-GR) (human, UniProt P08069 31-932); experiment: as above
T3 construct: Bought recombinant soluble receptor; also called insulin-like growth factor-1 soluble receptor

[4] = target: T4, rHuman P-Cadherin/Fc Chimera, CF (R&D Systems Cat#861-PC) (human, UniProt P22223 108-654); experiment: as above
T4 construct: Bought recombinant protein; Fc part of the bought chimera not given

[5] = target: T5, rHuman CD44/Fc Chimera, CF (R&D Systems Cat#3660-CD) (human, UniProt P16070 21-220); experiment: as above
T5 construct: Bought recombinant protein; Fc part of the bought chimera not given

[6] = target: T6, Recombinant Human DLL4 (R&D Systems Cat#1506-D4/CF) (human, UniProt Q9NR61 27-524); experiment: as above
T6 construct: Bought recombinant protein; also called delta-like protein 4; rHuman DLL4

[7] = target: T7, rHuman CD44/Fc Chimera, CF (R&D Systems Cat#3660-CD) (human, UniProt P16070 21-220); experiment: as above
T7 construct: Bought reagent; Fc part of the bought chimera not given

[8] = target: T8, rHuman IGF-1 sR, CF (R&D Systems Cat#391-GR) (human, UniProt P08069 31-932); experiment: as above
T8 construct: Bought soluble receptor; also called insulin-like growth factor-1 soluble receptor

[9] = target: T9, rHuman P-Cadherin/Fc Chimera, CF (R&D Systems Cat#861-PC) (human, UniProt P22223 108-654); experiment: as above
T9 construct: Bought reagent; Fc part of the bought chimera not given

[10] = target: T10, rHuman ErbB2/Fc Chimera, CF (R&D Systems Cat#1129-ER) (human, UniProt P04626 23-652); experiment: as above
T10 construct: Bought reagent; also called human epidermal growth factor 2 receptor; Fc part of the bought chimera not given

[11] = target: T11, Recombinant Human DLL4 (R&D Systems Cat#1506-D4/CF) (human, UniProt Q9NR61 27-524); experiment: as above; remark: listed apart in the source
T11 construct: Bought recombinant protein; also called delta-like protein 4; rHuman DLL4

[12] = target: T12, rHuman Erythropoietin R/Fc Chimera, CF (R&D Systems Cat#963-ER) (human, UniProt P19235 25-250); experiment: as above
T12 construct: Bought reagent; also called EPO R; EPO R/Fc; Fc part of the bought chimera not given
T12 sequence (looked up): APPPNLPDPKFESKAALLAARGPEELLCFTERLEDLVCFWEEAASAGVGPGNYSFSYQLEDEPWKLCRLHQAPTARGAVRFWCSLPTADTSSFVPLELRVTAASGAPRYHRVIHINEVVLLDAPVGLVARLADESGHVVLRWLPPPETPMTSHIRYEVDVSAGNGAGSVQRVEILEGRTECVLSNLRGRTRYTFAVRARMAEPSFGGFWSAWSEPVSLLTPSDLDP

Recombinant Human DLL4 [13] = target: T13, Recombinant Human DLL4 (human, UniProt Q9NR61 27-524); experiment: ECL (MSD) 96-well plate assay, DLL4 coated at 15 ug/mL, Fab 0.02 uM; signal over blank
T13 construct: Bought recombinant human DLL4 (R&D Systems Cat#1506-D4/CF), coated on the plate; also called delta-like protein 4; rHuman DLL4

Recombinant Human DLL4 [14] = target: T13, Recombinant Human DLL4; experiment: ECL (MSD) 96-well plate assay, DLL4 coated at 30 ug/mL, Fab 0.1 uM; signal over blank

B1: Fab VH6-1_IGHD3-3*01_IGHJ4*01 & V4-3_IGLJ4*01 (Fab, V domains shown)
VH: QVQLQQSGPGLVKPSQTLSLTCAISGDSVSSNSAAWNWIRQSPSRGLEWLGRTYYRSKWYNDYAVSVKSRITINPDTSKNQFSLQLNSVTPEDTAVYYCAREYYDFWSGYYTDYFDYWGQGTLVTVSS
VL: QPVLTQPTSLSASPGASARLTCTLRSGINLGSYRIFWYQQKPESPPRYLLSYYSDSSKHQGSGVPSRFSGSKDASSNAGILVISGLQSEDEADYYCMIWHSSASFVFGGGTQLIIL
notes: Germline Fab made in E. coli: VH in Plasmid A (CH1, His6 and Flag tags), lambda VL in Plasmid E (lambda CL)
Kd [1]: 38 µM

B2: Fab VH3-23_IGHD2-21*01>3_IGHJ6*01 H100E/S108P/Y113G/Y111H & V2-13_IGLJ2*01 (Fab, V domains shown)
VH: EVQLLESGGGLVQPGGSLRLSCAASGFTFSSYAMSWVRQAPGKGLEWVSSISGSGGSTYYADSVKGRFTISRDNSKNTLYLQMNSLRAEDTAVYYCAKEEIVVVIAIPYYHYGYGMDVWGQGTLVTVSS
VL: SSELTQDPAVSVALGQTVRITCQGDSLRSYYASWYQQKPGQAPVLVIYGKNNRPSGIPDRFSGSSSGNTASLTITGAQAEDEADYYCNSRDSSGNHLVVFGGGTKLTVL
notes: Fab made in E. coli: VH joined to CH1 (with His and Flag tags, plasmid A) and VL to lambda CL (plasmid E); also called EPG Y111H
ECL signal/blank ratio [2]: 1.5
ECL signal/blank ratio [3]: 1.2
ECL signal/blank ratio [4]: 7.7
ECL signal/blank ratio [5]: 1.3
ECL signal/blank ratio [6]: 1.6

B3: Fab VH3-23_IGHD2-21*01>3_IGHJ6*01 H100E/S108P/Y113G Y114H & V2-13_IGLJ2*01 (Fab, V domains shown)
VH: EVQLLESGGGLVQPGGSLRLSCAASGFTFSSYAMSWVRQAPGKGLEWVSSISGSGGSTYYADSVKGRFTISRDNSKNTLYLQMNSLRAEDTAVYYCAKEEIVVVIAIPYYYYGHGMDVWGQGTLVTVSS
VL: SSELTQDPAVSVALGQTVRITCQGDSLRSYYASWYQQKPGQAPVLVIYGKNNRPSGIPDRFSGSSSGNTASLTITGAQAEDEADYYCNSRDSSGNHLVVFGGGTKLTVL
notes: Tested as Fab made in E. coli (VH-CH1 with His and Flag tags; lambda CL); also called EPG Y114H
ECL multispot value [7]: 1.8
ECL multispot value [8]: 1.4
ECL multispot value [9]: 27
ECL multispot value [10]: 12.5
ECL multispot value [11]: 2.3
ECL multispot value [12]: 120

B4: Fab VH1-46_IGHD3-10*01_IGHJ4*01 & L12_IGKJ1*01 (Fab, V domains shown)
VH: QVQLVQSGAEVKKPGASVKVSCKASGYTFTSYYMHWVRQAPGQGLEWMGIINPSGGSTSYAQKFQGRVTMTRDTSTSTVYMELSSLRSEDTAVYYCAREYYYGSGSYYNDYFDYWGQGTLVTVSS
VL: not shown
notes: Germline Fab made in E. coli: VH in Plasmid A (CH1, His6 and Flag tags), kappa VL in Plasmid C (kappa CL)
Kd [1]: 0.5 µM
koff [1]: 0.29 s⁻¹
kon [1]: 500000 M⁻¹ s⁻¹

B5: Fab VH5-51_IGHD5-18*01>3_IGHJ4*01 & V3-4_IGLJ1*01 (Fab, V domains shown)
VH: EVQLVQSGAEVKKPGESLKISCKGSGYSFTSYWIGWVRQMPGKGLEWMGIIYPGDSDTRYSPSFQGQVTISADKSISTAYLQWSSLKASDTAMYYCARRGYSYGYDYFDYWGQGTLVTVSS
VL: QTVVTQEPSFSVSPGGTVTLTCGLSSGSVSTSYYPSWYQQTPGQAPRTLIYSTNTRSSGVPDRFSGSILGNKAALTITGAQADDESDYYCVLYMGSGISYVFGTGTKVTVL
notes: as for B1
Kd [1]: 4.8 µM

B6: Fab VH5-51_IGHD5-18*01>3_IGHJ4*01 G104D & V3-4_IGLJ1*01 (Fab, V domains shown)
VH: EVQLVQSGAEVKKPGESLKISCKGSGYSFTSYWIGWVRQMPGKGLEWMGIIYPGDSDTRYSPSFQGQVTISADKSISTAYLQWSSLKASDTAMYYCARRGYSYDYDYFDYWGQGTLVTVSS
VL: QTVVTQEPSFSVSPGGTVTLTCGLSSGSVSTSYYPSWYQQTPGQAPRTLIYSTNTRSSGVPDRFSGSILGNKAALTITGAQADDESDYYCVLYMGSGISYVFGTGTKVTVL
notes: Fab; VH-CH1 (His6/Flag, Plasmid A) and VL-lambda CL (Plasmid E)
Signal/Noise (Recombinant Human DLL4 [13]): 23.2
Signal/Noise (Recombinant Human DLL4 [14]): 42.5

B7: Fab VH5-51_IGHD5-18*01>3_IGHJ4*01 G104S & V3-4_IGLJ1*01 (Fab, V domains shown)
VH: EVQLVQSGAEVKKPGESLKISCKGSGYSFTSYWIGWVRQMPGKGLEWMGIIYPGDSDTRYSPSFQGQVTISADKSISTAYLQWSSLKASDTAMYYCARRGYSYSYDYFDYWGQGTLVTVSS
VL: QTVVTQEPSFSVSPGGTVTLTCGLSSGSVSTSYYPSWYQQTPGQAPRTLIYSTNTRSSGVPDRFSGSILGNKAALTITGAQADDESDYYCVLYMGSGISYVFGTGTKVTVL
notes: as for B6
Signal/Noise (Recombinant Human DLL4 [13]): 25.6
Signal/Noise (Recombinant Human DLL4 [14]): 47.8
